Data reported in patent US20230312745A1.
One block for each molecule: values may come before it.

Key:
[1] = biological target: Ly6C on mouse blood mononuclear cells (mouse) (UniProt P0CW02); assay: flow cytometry contour plot of live mononuclear-gated blood cells 1 h after injection into DSS treated mice; upper left quadrant 9.7; Mock panel 14.6 and 0.30
[2] = biological target: LFA-1 on the mouse T cell lymphoma cell line TK1 (mouse) (UniProt P24063); assay: flow cytometry, control: secondary scFv on TK1 cells without RIg; left gate 97.9; unstain 1.87; target taken as the LFA-1 carried by TK1 cells
[3] = biological target: Rat IgG2a (RIg), clone FIB504 (BioXcell); assay: ELISA, plate coated with RIg, serial dilutions of ASSET, anti-His detection
[4] = biological target: Rat IgG2a (RIg), clone FIB504 (BioXcell); assay: ELISA on coated RIg, ASSET LNPs after dialysis, pre-incubated with 0.2% Triton X-100
[5] = biological target: anti-CD34 antibody (clone mec14.7) RIg, self-assembled on ASSET LNPs (TsiLNPs); assay: RIg taken up by ASSET LNPs, acrylamide gel against free RIg dilutions / western blot after 1 MDa dialysis

Chain of UniProt P0CW02 (P0CW02 27-109): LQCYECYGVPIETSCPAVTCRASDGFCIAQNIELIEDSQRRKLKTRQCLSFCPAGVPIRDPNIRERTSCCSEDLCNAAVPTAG

number in the upper right quadrant (Ly6C high, siCy5 high) [1]: 0.53
Molecule: isotype control RIg (BioXcell), self-assembled on ASSET LNPs (TsiLNPs) (antibody)

number in the right (positive) gate of the histogram [2]: 2.06
B1: Secondary scFv (scFv of clone RG7/1.30, without lipidation motif) (scFv)
scFv: HHHHHHEVQLLQSGPELVKPGASVKIPCKASGYTFTDYNMDWVKQSHEKSLEWIGYINPYSGDTIYNHKFKDKATLTVYKSSNIAYMELRSLTSEDTAVYYCARGGYDYGDHWGQGTTLTVSSGSAGGGGSGGGGSGGGGSDIKMTQSPSSMYASLGERVTITCKASQDINSYLSWFQQKPGKSPKTLIYRANRLVDGVPSRFSGSGSGQDYSLTISSLEYEDMGIYYCLQDDEFPRTFGGGTKLEIK

Kd [3]: 10 nM
functionality maintained after incorporation into LNPs [4]: 95.8%
IgG incorporation [5]: 98.3%
B2: ASSET (Anchored Secondary scFv Enabling Targeting) (scFv, part only; not given: mCherry fusion partner, part only)
scFv, part: CDQSSSEVQLLQSGPELVKPGASVKIPCKASGYTFTDYNMDWVKQSHEKSLEWIGYINPYSGDTIYNHKFKDKATLTVYKSSNIAYMELRSLTSEDTAVYYCARGGYDYGDHWGQGTTLTVSSGSAGGGGSGGGGSGGGGSDIKMTQSPSSMYASLGERVTITCKASQDINSYLSWFQQKPGKSPKTLIYRANRLVDGVPSRFSGSGSGQDYSLTISSLEYEDMGIYYCLQDDEFPRTFGGGTKLEIKHHHHHH
modifications: N-terminal cysteine of the CDQSSS NlpA motif is lipidated (bacterial lipidation)
